Four molecules from patent publication US20220064286A1 (Genentech, published 2022) can be followed below.

Usually koff stands for the first-order rate constant of dissociation. A word on the kon: it is the second-order rate constant of association. A word on the EC50: it is the concentration needed to bring the measured effect to its halfway point. In general, IC50 refers to the concentration at which inhibition is half-maximal. The EC50 (read off the curve) is the concentration that produces a half-maximal response.

Like-named read-outs stand apart in the source and are kept apart here.

The target of test [1] is T1, human TIGIT protein (human, UniProt Q495A1 22-141, limits assumed).
T1 construct: Recombinant protein (Genentech) used in ELISA screening and as SPR analyte; also called TIGIT antigen
T1 sequence: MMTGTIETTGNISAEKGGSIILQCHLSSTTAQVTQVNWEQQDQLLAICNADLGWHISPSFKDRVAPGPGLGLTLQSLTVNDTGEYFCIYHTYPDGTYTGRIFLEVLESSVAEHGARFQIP
In words: SPR, captured mAb. Here is the method: (§1) Briefly, a series S CM5 biosensor chip was activated with N-ethyl-N′-(3-dimethylaminopropyl)-carbodiimide hydrochloride (EDC) and N-hydroxysuccinimide (NHS) reagents according to the supplier's (GE Healthcare Biosciences, Piscataway, N.J.) instructions, and a human antibody capture kit was applied to couple goat anti-human Fc IgGs in order to achieve approximately 10,000 response units (RU) on each flow cell, followed by blocking un-reacted groups with 1M ethanolamine.
(§2) (flow rate: 30 μl/min) with no regeneration between injections. The sensorgrams were recorded and evaluated by BIAcore™ T200 Evaluation Software (version 2.0) after subtraction of reference cell signal. Association rates (kₒₙ) and dissociation rates (koff) were calculated using a simple one-to-one Langmuir binding model. The equilibrium dissociation constant (KD) was calculated as the ratio koff/kₒₙ.
(§3) The first humanized versions, h6B2, L1H1, h10A5.L1H1, h7E7, L1H1, and h15C8.L1H1, which contain both rat CDRs and framework residues at Vernier positions, and the fully humanized versions, h6B2.L2H5, h10A5.L4H4, h7E7.L5H9, and h15C8.L5H9, which contain only rat CDRs were subject to BIAcore affinity measurement by comparison with original rat antibodies, rat6B2, rat10A5, rat7E7 and rat 15C8. For binding affinity determinations of TIGIT antibodies against human TIGIT, cynomolgus monkey TIGIT and human alanine-scanned TIGIT mutants by single-cycle kinetics, Surface Plasmon Resonance (SRP) measurement with a BIACORE™-T200 instrument was used, as described above.

Test [2] addresses T2, cynomolgus monkey (cyno) TIGIT protein (cynomolgus monkey, UniProt A0A7N9I9V4 89-209). The test can be described thus: SPR, captured mAb. As for the experimental part: as §1, §2, §3
Test [3] addresses T1, human TIGIT protein. In words: SPR, bivalent affinity. (SPR reads the build-up and loss of mass on a sensor chip optically.)
The target in test [4] is T2, cynomolgus monkey (cyno) TIGIT protein. The test can be described thus: SPR, bivalent affinity.
For test [5], the target named is T1, human TIGIT protein. The test can be described thus: SPR, monovalent affinity.
For test [6], the target named is T2, cynomolgus monkey (cyno) TIGIT protein. In words: SPR, monovalent affinity.
Test [7] has as its target T3, human TIGIT on activated human primary T cells (human, UniProt Q495A1 22-244).
T3 construct: also called Human T cell
T3 sequence: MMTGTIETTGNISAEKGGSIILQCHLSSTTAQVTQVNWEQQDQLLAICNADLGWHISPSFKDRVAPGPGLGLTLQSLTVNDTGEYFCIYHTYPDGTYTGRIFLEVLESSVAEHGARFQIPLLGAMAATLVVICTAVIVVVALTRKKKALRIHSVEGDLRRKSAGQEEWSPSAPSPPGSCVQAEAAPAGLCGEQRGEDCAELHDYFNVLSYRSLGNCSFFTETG
The test can be described thus: FACS, activated human T cells. Here is the method: The OMT- and SD-derived anti-TIGIT clones were also tested for binding to human primary T cells by FACS analysis. Human PBMC were activated for with plate-bound anti-CD3 (5 μg/ml) and soluble anti-CD28 (2 μg/ml) for 2 days as described in Yu et al. Nature Immunology. 10: 48-57, 2009, which is incorporated herein by reference in its entirety. Cells were then washed and incubated with incubated with each anti-TIGIT antibody at the indicated concentrations and then detected via a FITC-labeled anti-hIgG antibody. Cells were also stained with anti-CD4, anti-CD8, and anti-CD25 (BD bioscience). Human CD4+(CD25+CD4+) and human CD8+(CD25+CD8+) T cells were assessed for binding by the anti-TIGIT clones by FACS. All samples were acquired on LSR-II or LSR-Fortessa instruments (BD Biosciences) and analyzed using FlowJo software (Treestar).
Background: A flow cytometer gives signals particle by particle.

Test [8] addresses T4, full-length human TIGIT on CHO cells (human, UniProt Q495A1 22-244).
T4 construct: also called CHO-hTIGIT; hu TIGIT
T4 sequence: T3 sequence
The test can be described thus: FACS, CHO cells expressing TIGIT.

The target in test [9] is T4, full-length human TIGIT on CHO cells. In words: FACS, PVR-Fc on CHO-TIGIT cells; competitor PVR-Fc. As for the experimental part:
(§4) These studies were further validated in CHO-TIGIT PVR blocking experiments in which TIGIT-expressing CHO cells were incubated with labeled PVR-Fc fusion protein in the presence of anti-TIGIT antibody or an human IgG1 control (FIG. 4A).

In test [10] the target is T5, cynomolgus TIGIT on CHO cells (cynomolgus monkey, UniProt A0A7N9I9V4 89-312).
T5 construct: whole, on cells; also called CHO-cyTIGIT; cyTIGIT
In words: FACS on CHO cells expressing cyno TIGIT, FITC anti-hIgG detection. As for the experimental part:
Additional in vitro binding studies of the OMT- and SD-derived anti-TIGIT antibody clones were conducted. The OMT- and SD-derived anti-TIGIT clones were tested for binding to human and cyno TIGIT expressed on the surface of CHO cells by FACS analysis. CHO cells were transfected with full-length human TIGIT (CHO-hTIGIT) or cynomologous TIGIT (CHO-cyTIGIT). The TIGIT-expressing CHO cells were incubated with each anti-TIGIT antibody at the indicated concentrations and then detected via a FITC-labeled anti-hIgG antibody (see FIG. 1A) using standard methods. The results, shown in Table 6 and FIGS. 1B-1E, corroborate the results from the BIACORE™ analysis, described above.

Test [11] has as its target T5, cynomolgus TIGIT on CHO cells. In words: FACS blocking assay: labelled PVR-Fc (blocked ligand) on CHO cells expressing cyno TIGIT. As for the experimental part: as §4
Test [12] concerns the target T1, human TIGIT protein. The test can be described thus: SPR, captured mAb.
Source text: (§5) To prevent unwanted pyroglutamate formation for clones 4.1A4, 4.1 D3, and 7.4A3 (also referred to as 1A4, 1 D3, and 4A3, respectively) and to resolve the issue of unpaired cysteine residues for clones 4.1A4 and 7.4A3, the following optimized anti-TIGIT antibody variants were generated: 4.1A4.C96S.Q1E, 4.1A4.C96Y.Q1E, 4.1 D3.Q1E, 7.4A3.C96S.Q1E, and 7.4A3.C96Y.Q1E (also referred to as 1A4.C96S.Q1E, 1A4.C96Y.Q1E, 1 D3.Q1E, 4A3.C96S.Q1E, and 4A3.C96Y.Q1E, respectively). As described below in Table 2, the affinities of these five optimized variants for human and cynomolgus monkey (cyno) TIGIT were then determined by Surface Plasmon Resonance (SRP) (BIACORE™ analysis) and compared to that of their respective parental clones.
as §1, §2
The source holds these as a separate data set.

Test [13] deals with T2, cynomolgus monkey (cyno) TIGIT protein. In words: SPR, captured mAb.
Source text: as §5, §1, §2
This is another data set of the same source.

The target of test [14] is T5, cynomolgus TIGIT on CHO cells. In words: FACS blocking assay: labelled PVR-Fc (blocked ligand; text: cyPVR, scheme of FIG. 4A prints hPVR.Fc) on CHO cells expressing cyno TIGIT. As for the experimental part: as §4

T5 sequence (A0A7N9I9V4 entry or part of it): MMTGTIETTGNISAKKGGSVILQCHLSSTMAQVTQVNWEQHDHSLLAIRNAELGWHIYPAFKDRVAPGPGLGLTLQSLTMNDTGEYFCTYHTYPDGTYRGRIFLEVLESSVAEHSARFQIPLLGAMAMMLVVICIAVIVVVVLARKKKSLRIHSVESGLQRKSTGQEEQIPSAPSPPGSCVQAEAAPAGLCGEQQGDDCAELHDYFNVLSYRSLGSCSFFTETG
T2 sequence (A0A7N9I9V4 entry or part of it): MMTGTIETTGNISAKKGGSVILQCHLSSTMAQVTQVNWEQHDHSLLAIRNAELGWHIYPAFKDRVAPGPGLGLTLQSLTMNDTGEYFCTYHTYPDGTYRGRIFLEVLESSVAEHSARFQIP

B1: rat7E7 (antibody, V domains shown)
VH: EVQLQQSGPELQRPGASVKLSCKATGYTFTEYSIYWVKQRPKQSLEIIGRIDPKNGRTYYVDKFKNRATLTADTSSNTAYMQLSSLTSEDTATYFCTRIYGFYFDFWGQGVMVTASS
VL: NIHLTQSPSLLSASVGDRVTLSCKGSQNVNKYLVWYQQKLGEAPKLLIYNTDNLQSGIPSRFSGSGSGTDYTLTISSLQPEDAATYFCYQYNNGFTFGSGTKLEIK
notes: SD rat-derived; rat V domains as FR/HVR pieces; also called 1.7E7; Chimeric 1.7E7
In the case of B1, the Kd in the test with human TIGIT protein [1] is 0.03 nM; in test [2] it was 0.07 nM; with human TIGIT protein [3] it was at most 0.004 nM; in test [4], at most 0.009 nM; in the test with human TIGIT protein [5], at most 0.018 nM; in test [6] it was 0.067 nM. Further, the figures for the koff (with human TIGIT protein [1]; in test [2]) were 1.8e-05 s⁻¹ and 2.7e-05 s⁻¹, respectively. The kon stood at 568000 M⁻¹ s⁻¹ in the test with human TIGIT protein [1] and 399000 M⁻¹ s⁻¹ in test [2]. In addition, the values for the EC50 in test [7] and in [8] were 0.11 nM and 0.1 nM, respectively. In addition, the half-maximal inhibitory concentration (IC50) in [9] came out at 0.04 nM. Besides, in [10], the “EC50 (read off the curve)” value was around 0.3 nM. In addition, the “IC50 (read off the curve)” value in test [11] was around 0.3 nM.

B2: rat6B2 (antibody, V domains shown)
VH: QVSLKESGPGILQPSHTLSLTCSFSGFSLSTYGMGVSWIRQPSEKGLEWLASIWWNGNTYYNPSLKSRLTVSKDASNDQAFLNVTSVDTTDTATYYCAHTGGAVITWFAYWGQGTLVTVSS
VL: NIVMTQSPKSMSISVGDRVTMNCKASQSVGKNIAWYQQKPGQSPKLLIYYASNRYTGVPDRFTGGGSGTDFTLTINTVQAEDAAFFYCQHIYNSPYPFGTGTKLEIK
notes: SD rat-derived; rat V domains as FR/HVR pieces; also called 1.6B2; Chimeric 1.6B2
Take B2: the Kd in the test with human TIGIT protein [1] was 0.04 nM; in test [2], 0.29 nM; in the test with human TIGIT protein [3], at most 0.027 nM; in test [4], 0.091 nM; with human TIGIT protein [5], 0.035 nM; in test [6] it was 0.29 nM. Also, the koff came out at 3.5e-05 s⁻¹ with human TIGIT protein [1] and 0.000202 s⁻¹ in test [2]. Also, the kon is 997000 M⁻¹ s⁻¹ with human TIGIT protein [1] and 688000 M⁻¹ s⁻¹ in test [2]. Also, the half-maximal effective concentration (EC50) in test [7] worked out at 0.09 nM; in test [8] it was 0.52 nM. Also, in [9], the IC50 was determined as 0.08 nM.

B3: 7.4A3 (antibody, V domains shown)
VH: QVQLVQSGSDLKKPGASVRVSCKASGYTFTSYPMNWVRQAPGHGLEWMGWINTNTGNPTYVQGFTGRFVFSLDTSVNTAYLQISSLKAEDTAVYFCARTGGHTYDSYAFDVWGQGTMVTVSS
VL: DIQLTQSPTFLSASVGDRVTITCRASQVISSSLAWYQQNPGKAPKLLIYAASTLQSGVPSRFSGSGSGTEFTLTISSLQPEDFVTYYCQHLHGYPCNFGQGTKVEIK
notes: OMT rat-derived human antibody; also called 7.4A3.Q1.C96
With B3, the Kd with human TIGIT protein [12] was 3.44 nM; in [13] it was 2.09 nM; with human TIGIT protein [3], 0.098 nM; in test [4], at most 0.05 nM; with human TIGIT protein [5], 3.6 nM; in test [6] it was 1.6 nM. Besides, the koff stood at 0.00104 s⁻¹ in the test with human TIGIT protein [12] and 0.000699 s⁻¹ in test [13]. Further, the kon is 302000 M⁻¹ s⁻¹ with human TIGIT protein [12] and 334000 M⁻¹ s⁻¹ in [13]. Besides, the concentration for a half-maximal effect (EC50 (read off the curve)) in [10] was around 1 nM. Further, the “IC50 (read off the curve)” value in [14] was around 0.3 nM.

B4: 4.1A4.C96S.Q1E (antibody, V domains shown)
VH: EVQLVQSGSELKKPGASVKVSCKASGYTLTNYPMNWVRQAPGRGLEWMGWINTNTGSPAYAQDFTERFVFSLDTSVTTAYLQISSLKAEDTAVYYCARTAITSVYHFDYWGQGTLVTVSS
VL: DIQLTQSPSFLSASVGDRVTITCRASQGISSYLAWYQQKPGKAPRVLIYGATTLQSGVPSRFSGSESGTEFTLTISSLQPEDLATYYCQKLNSHPSSFGQGTKVEIK
notes: FR/HVR pieces in order; also called 4.1A4.Q1E.C96S
In [13], B4 showed a Kd of 12.6 nM, a koff of 0.0169 s⁻¹ and a kon of 1.34e+06 M⁻¹ s⁻¹. For the same molecule, the Kd in [6] came to 12.6 nM. The “EC50 (read off the curve)” value in test [10] was around 0.5 nM. Besides, the “IC50 (read off the curve)” value in [14] was around 0.09 nM.
